From patent US20250136703A1 (PHANES THERAPEUTICS, published 2025)

T1: recombinant human IL13Ra2 (ACROBiosystems; CAT #: IL2-H52H5) (human, UniProt Q14627 27-343)
T1 construct: Bought protein, coated on the ELISA plate; also called Interleukin-13 Receptor Subunit Alpha 2; immobilized recombinant IL13Ra2
T1 sequence (looked up): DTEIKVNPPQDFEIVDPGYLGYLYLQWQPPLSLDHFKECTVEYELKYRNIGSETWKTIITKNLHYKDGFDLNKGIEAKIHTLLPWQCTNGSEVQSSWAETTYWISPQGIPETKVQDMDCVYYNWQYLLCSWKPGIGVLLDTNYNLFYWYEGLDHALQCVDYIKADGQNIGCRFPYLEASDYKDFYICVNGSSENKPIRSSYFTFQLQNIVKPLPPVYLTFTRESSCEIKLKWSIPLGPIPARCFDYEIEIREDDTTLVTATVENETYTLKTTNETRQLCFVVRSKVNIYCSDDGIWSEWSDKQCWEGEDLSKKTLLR


Key:
[1] = molecular target: T1, recombinant human IL13Ra2 …; test: ELISA, antigen coated on plate
[2] = molecular target: T1, recombinant human IL13Ra2 …; test: ELISA, antigen coated on plate, anti-human IgG Fc-HRP detection
Excerpt: FIGS. 1A-1E show the binding of purified chimeric anti-IL13Ra2 mAbs (VH and VL regions of mouse mAb fused to the constant regions of human IgG1 heavy chain and kappa light chain, respectively) to immobilized recombinant IL13Ra2 in an ELISA assay. The antigen was human IL13Ra2 (ACROBiosystems; Newark, DE; CAT #: IL2-H52H5). L3A6-C refers to the chimeric version of L3A6, other antibodies following the same naming rule; Isotype control (IgG1) was included as a negative control antibody.
Purified chimeric mAbs were tested in an ELISA assay for their ability to bind to immobilized IL13Ra2. Recombinant human IL13Ra2 in Carbonate-Bicarbonate Buffer (Sigma; St. Louis, MO; Cat #: C3041-100CAP) was coated on a 96-well plate at room temperature for 1 hour. The plate is blocked by 5% BSA in TBST for 1 hour at room temperature. In each well of an individual plate, mAbs at various concentrations were incubated for 1 hour at room temperature. The plate was washed and the binding to IL13Ra2 was detected by a mouse anti-human IgG Fc antibody conjugated to horseradish peroxidase (Genescript; Piscataway, NJ; Cat #: A01854) with incubation for 1 hour at room temperature. Then after washing, the ELISA was developed using One-step Detection Solution (ThermoFisher Scientific; Waltham, MA; Cat #: 34028) and measured as the absorbance at 450 nm. […]

| binding result [1] | binding result [2] | Binder |
| --- | --- | --- |
| binds |  | L3A6-H1L1 (humanized mAb constructed with L3A6-H1 heavy chain and L3A6-L1 light chain) (antibody, V domains shown, Humanized VH and VL fused to the constant regions of human IgG1 heavy chain and kappa light chain) VH: QVTLRESGPALVKPTQTLTLTCTASGYTFTNYWMNWVRQPPGKALEWIGRIDPSDTETHYNQEVKDRATLSVDKSKNQAVLTMTNMDPVDTATYYCARGYGTYYGMDYWGQGSLVTVSS VL: DIVLTQSPDSLSVSLGERATINCRASESVDNYGISFMNWFQQKPGQPPKLLIYAASNQGSGVPDRFSGSGSGTDFTLTISSLQAEDVAVYFCQQSKEVPWTFGGGTKVEIK |
|  | binds | L3A6-C (chimeric version of L3A6) (antibody, V domains shown, Mouse VH and VL fused to the constant regions of human IgG1 heavy chain and kappa light chain) VH: QVQLQQPGAELVKPGAPVKLSCKASGYTFTNYWMNWVKQRPGRGLEWIGRIDPSDTETHYNQEVKDKATLTVDKSSSTAYIQLSSLTSEDSAVYYCARGYGTYYGMDYWGQGTSVTVSS VL: not shown |
